Like-named read-outs stand apart in the source and are kept apart here. Values belong to the binder of their own block, whether it stands above or below them.
Legend:
Assay in all cases: two-hybrid library CCmax;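 further: natural log of median RNA to DNA barcode read ratio; higher means stronger binding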
[1] = molecular target: T1, 4H342-AA
T1 chain: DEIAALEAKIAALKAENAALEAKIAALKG

[2] = molecular target: T2, 4H3427-AA; settings: mean of both orientations
T2 chain: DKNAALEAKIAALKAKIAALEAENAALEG

[3] = molecular target: T3, 4H3606-AA; settings: mean of both orientations
T3 chain: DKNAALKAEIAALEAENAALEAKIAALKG

[4] = molecular target: T4, 4H3627-AA; settings: mean of both orientations
T4 chain: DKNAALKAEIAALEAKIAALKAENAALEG

[5] = molecular target: T5, 4H3655-AA; settings: mean of both orientations
T5 chain: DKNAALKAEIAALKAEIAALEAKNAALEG

[6] = molecular target: T6, 4H3844-AA
T6 chain: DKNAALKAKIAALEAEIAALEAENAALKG

[7] = molecular target: T7, 4H3921-AA
T7 chain: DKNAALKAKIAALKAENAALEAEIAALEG

[8] = molecular target: T8, 4H429-AA; settings: mean of both orientations
T8 chain: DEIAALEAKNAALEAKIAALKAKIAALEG

[9] = molecular target: T9, 4H454-AA; settings: mean of both orientations
T9 chain: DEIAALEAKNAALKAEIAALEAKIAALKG

[10] = molecular target: T10, 4H48-AA; settings: mean of both orientations
T10 chain: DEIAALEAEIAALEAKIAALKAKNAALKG

[11] = molecular target: T11, 4H566-AA; settings: mean of both orientations
T11 chain: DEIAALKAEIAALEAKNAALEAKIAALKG

[12] = molecular target: T12, 4H605-AA; settings: mean of both orientations
T12 chain: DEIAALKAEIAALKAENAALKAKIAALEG

[13] = molecular target: T13, 4H678-AA; settings: mean of both orientations
T13 chain: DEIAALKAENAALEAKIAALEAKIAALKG

[14] = molecular target: T14, 4H717-AA; settings: mean of both orientations
T14 chain: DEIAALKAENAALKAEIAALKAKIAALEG

[15] = molecular target: T15, 4H780-AA; settings: mean of both orientations
T15 chain: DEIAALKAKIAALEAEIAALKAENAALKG

[16] = molecular target: T16, 4H794-AA; settings: mean of both orientations
T16 chain: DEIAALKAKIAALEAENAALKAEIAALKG

[17] = molecular target: T17, 4H881-AA; settings: mean of both orientations
T17 chain: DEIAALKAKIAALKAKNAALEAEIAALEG

[18] = molecular target: T18, 4H906-AA; settings: mean of both orientations
T18 chain: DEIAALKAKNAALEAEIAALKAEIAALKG

[19] = molecular target: T19, 4H993-AA; settings: mean of both orientations
T19 chain: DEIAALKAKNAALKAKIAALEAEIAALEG

[20] = molecular target: T20, 4H497-AA
T20 chain: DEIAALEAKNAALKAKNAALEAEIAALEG

[21] = molecular target: T21, 4H656-AA
T21 chain: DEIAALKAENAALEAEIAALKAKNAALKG

[22] = molecular target: T22, 4H675-AA
T22 chain: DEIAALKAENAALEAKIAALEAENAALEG

[23] = molecular target: T23, 4H971-AA; settings: mean of both orientations
T23 chain: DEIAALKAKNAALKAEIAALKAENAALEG

[24] = molecular target: T24, 4H3753-AA
T24 chain: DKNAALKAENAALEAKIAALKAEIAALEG

[25] = molecular target: T25, 4H3865-AA; settings: mean of both orientations
T25 chain: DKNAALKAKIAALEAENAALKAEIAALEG

[26] = molecular target: T26, 4H458-AA; settings: mean of both orientations
T26 chain: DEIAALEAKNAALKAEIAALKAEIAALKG

[27] = molecular target: T27, 4H485-AA; settings: mean of both orientations
T27 chain: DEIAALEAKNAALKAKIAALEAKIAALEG

[28] = molecular target: T28, 4H536-AA; settings: mean of both orientations
T28 chain: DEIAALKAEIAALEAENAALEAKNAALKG

[29] = molecular target: T29, 4H570-AA; settings: mean of both orientations
T29 chain: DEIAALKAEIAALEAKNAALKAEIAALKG

[30] = molecular target: T30, 4H629-AA; settings: mean of both orientations
T30 chain: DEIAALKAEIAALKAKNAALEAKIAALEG

[31] = molecular target: T31, 4H710-AA; settings: mean of both orientations
T31 chain: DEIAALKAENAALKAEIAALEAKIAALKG

[32] = molecular target: T32, 4H745-AA; settings: mean of both orientations
T32 chain: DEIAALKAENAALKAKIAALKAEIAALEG

[33] = molecular target: T33, 4H797-AA; settings: mean of both orientations
T33 chain: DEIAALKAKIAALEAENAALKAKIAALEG

[34] = molecular target: T34, 4H850-AA; settings: mean of both orientations
T34 chain: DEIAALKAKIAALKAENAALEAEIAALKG

[35] = molecular target: T35, 4H891-AA; settings: mean of both orientations
T35 chain: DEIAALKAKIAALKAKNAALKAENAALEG

[36] = molecular target: T36, 4H909-AA; settings: mean of both orientations
T36 chain: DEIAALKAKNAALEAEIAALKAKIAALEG

[37] = molecular target: T37, 4H930-AA; settings: mean of both orientations
T37 chain: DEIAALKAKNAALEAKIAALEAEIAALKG

[38] = molecular target: T38, 4H94-AA; settings: mean of both orientations
T38 chain: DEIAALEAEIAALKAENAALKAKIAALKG

[39] = molecular target: T39, 4H478-AA
T39 chain: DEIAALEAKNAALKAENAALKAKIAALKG

[40] = molecular target: T40, 4H3697-AA
T40 chain: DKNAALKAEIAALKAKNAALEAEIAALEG

[41] = molecular target: T41, 4H3718-AA; settings: mean of both orientations
T41 chain: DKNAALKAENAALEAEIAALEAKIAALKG

[42] = molecular target: T42, 4H384-AA; settings: mean of both orientations
T42 chain: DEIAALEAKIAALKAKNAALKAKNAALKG

[43] = molecular target: T43, 4H697-AA; settings: mean of both orientations
T43 chain: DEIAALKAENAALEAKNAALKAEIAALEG

[44] = molecular target: T44, 4H982-AA; settings: mean of both orientations
T44 chain: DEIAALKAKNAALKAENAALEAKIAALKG

Binder: DEIAALEAKNAALKAKNAALEAEIAALEG [4H497-AA]
- interaction score [20]: -1.57
- interaction score ([21]; mean of both orientations): -1.34
- interaction score [22]: -0.54
- interaction score [23]: -2.19

Binder: DKNAALKAKIAALEAEIAALEAENAALKG [4H3844-AA]
- interaction score [6]: 0.661
- interaction score ([7]; mean of both orientations): -1.65
- interaction score [8]: -0.665
- interaction score [9]: -0.212
- interaction score [10]: 1.16
- interaction score [11]: -1.77
- interaction score [12]: -1.48
- interaction score [21]: -1.07
- interaction score [13]: 0.663
- interaction score [14]: -1.65
- interaction score [15]: 0.995
- interaction score [16]: -1.33
- interaction score [17]: -0.992
- interaction score [18]: -1.43
- interaction score [19]: -1.76

Binder: DKNAALKAENAALEAKIAALKAEIAALEG [4H3753-AA]
- interaction score [24]: -0.536
- interaction score [25]: -1.43
- interaction score [26]: 1.56
- interaction score [27]: 1.4
- interaction score [28]: -1.2
- interaction score [29]: -1
- interaction score [30]: -1.7
- interaction score [31]: 2.05
- interaction score [32]: -0.67
- interaction score [33]: -1.42
- interaction score [34]: -2
- interaction score [35]: -1.97
- interaction score [36]: -0.932
- interaction score [37]: -1.43
- interaction score [38]: -1.45

Binder: DKNAALKAKIAALKAENAALEAEIAALEG [4H3921-AA]
- interaction score [7]: -1.67
- interaction score [8]: -0.196
- interaction score [9]: 0.521
- interaction score [11]: 0.811
- interaction score [12]: -0.532
- interaction score [13]: -1.4
- interaction score [14]: -1.37
- interaction score [15]: -1.71
- interaction score [16]: -0.924
- interaction score [17]: -0.834
- interaction score [18]: -1.62
- interaction score [19]: 0.874

Binder: DKNAALKAEIAALKAKNAALEAEIAALEG [4H3697-AA]
- interaction score [40]: -0.761
- interaction score [41]: -0.817
- interaction score ([24]; mean of both orientations): -1.79
- interaction score [42]: -0.953
- interaction score [25]: -1.52
- interaction score [26]: -1.36
- interaction score [27]: -0.973
- interaction score [28]: 0.0406
- interaction score [29]: 0.23
- interaction score [30]: -0.654
- interaction score [43]: -1.53
- interaction score [31]: -1.75
- interaction score [32]: -1.64
- interaction score [33]: -1.44
- interaction score [34]: -0.0774
- interaction score [35]: -1.55
- interaction score [36]: -1.21
- interaction score [37]: -1.4
- interaction score [38]: 1.01
- interaction score [44]: -1.01

Further lines, results first:

- interaction score [1]: 1.54
- interaction score [2]: -1.15
- interaction score [3]: 1.55
- interaction score [4]: 0.447
- interaction score [5]: -0.61
- interaction score ([6]; mean of both orientations): 0.569
- interaction score ([7]; mean of both orientations): 0.975
- interaction score [8]: -0.49
- interaction score [9]: 2.21
- interaction score [10]: -0.491
- interaction score [11]: 2.31
- interaction score [12]: 1.41
- interaction score [13]: 0.227
- interaction score [14]: -1.4
- interaction score [15]: -1.58
- interaction score [16]: 1.25
- interaction score [17]: 2.49
- interaction score [18]: -1.52
- interaction score [19]: 1.17
Binder: DEIAALEAKIAALKAENAALEAKIAALKG [4H342-AA]

- interaction score [39]: 0.99
- interaction score ([20]; mean of both orientations): -0.909
- interaction score ([21]; mean of both orientations): -0.144
- interaction score [22]: -1.76
- interaction score [23]: -1.54
Binder: DEIAALEAKNAALKAENAALKAKIAALKG [4H478-AA]

Source: publication PMC10397247
